The target of assay [1] is T1, QP1165 after cleavage to N-terminal isoleucine (IAFLKQRVWK).
T1 peptide: IAFLKQRVWK
The assay can be described thus: on-chip dynamic sequencing of QP1165, PS1875 run, trace Aperture=1311609.

Assay [2] deals with T2, QP1165 after cleavage to N-terminal leucine (LKQRVWK).
T2 peptide: LKQRVWK
The assay is described as follows: on-chip dynamic sequencing of QP1165, PS1875 run, trace Aperture=340501.

Assay [3] addresses T1, QP1165 after cleavage to N-terminal …. The description is as above.
The target in assay [4] is T2, QP1165 after cleavage to N-terminal …. The assay can be described thus: on-chip dynamic sequencing of QP1165, 500 nM PS1875 plus five recognizers, 11565 alignments. Here is the method:
(§1) The semiconductor chip was placed in the sequencing device and a chip check was performed to test electronic circuit function and to optimize laser coupling alignment. The chip was then removed from the device socket and the chip was washed twice with 50 μL of 70% isopropanol, followed by four washes with 30 μL of wash buffer (50 mM MOPS pH 8.0, 60 mM potassium acetate, 50 mM glucose, 20 mM magnesium acetate, and surfactant mix) through a flow cell attached to the chip. A second chip check was then performed. The laser was then blocked via an integrated software-controlled shutter, peptide complex was added to a final concentration of 1-10 nM and mixed thoroughly, and the chip was incubated for 15 min. The chip was then washed six times with wash buffer, followed by addition of an imaging solution (wash buffer with 5 mM Trolox and an oxygen scavenging system). The laser was unblocked and the occupancy percentage (target 10-30%, Poisson distributed) was recorded by acquiring a photobleaching signal from a fluorophore attached to the peptide complex during 5 min of laser illumination. […] Data was recorded for 15 min. The laser was then blocked briefly and aminopeptidases were added to the sequencing reaction via the flow cell and mixed thoroughly (final concentration 2-8 μM PhTET2 and/or 20-80 μM PhTET3, as indicated according to the experiment). The laser was then unblocked, and data was recorded for 10 hours. For all runs, 30 μL of mineral oil was added to fluid reservoirs at each port of the flow cell to prevent evaporation during the run.

Assay [5] deals with T1, QP1165 after cleavage to N-terminal …. Described as above. Here is the method: as §1
The target in assay [6] is T2, QP1165 after cleavage to N-terminal …. The assay is described as follows: on-chip dynamic sequencing of QP1165, PS2132 run, trace Aperture=1826247.
The target is the same in assay [7]. The assay is described as follows: on-chip dynamic sequencing of QP1165, PS2123 run, trace Aperture=1168773.
Assay [8] addresses T1, QP1165 after cleavage to N-terminal …. Described as above.

B1: PS1223 (designed binder)
single polypeptide, two PS961 units in tandem: MPTAASATESAIEDTPAPARPEVDGRTKPKRQPRYHVVLWDDDDHTYQYVVVMLRSLFGHPPSRGYRMAKEMDTQGRVIVLTTTREHAELKRDQIHAFGRDRLLARSKGSMKASIEAEEGSAGSAAGSGEFGSAGSAAGSGEFGSAGSAAGSGEFMPTAASATESAIEDTPAPARPEVDGRTKPKRQPRYHVVLWDDDDHTYQYVVVMLRSLFGHPPSRGYRMAKEMDTQGRVIVLTTTREHAELKRDQIHAFGRDRLLARSKGSMKASIEAEE
notes: dye-labelled recognizer for N-terminal L, I, V in the six-recognizer runs; also called PS1223 (LIV)
As for B1, the “PD of a recognition segment in an example trace” value in assay [1] turned out to be 0.61 s; in assay [2] it was 0.36 s; in assay [3], 0.49 s; in assay [6], 0.52 s; in assay [7], 0.39 s; in assay [8], 0.53 s. Moreover, the “IPD (interpulse duration)” value in assay [4] came out at 17.1 s; in assay [5], 8.79 s. The “PD (pulse duration)” value in assay [4] was determined as 0.59 s; in assay [5] it was 1.01 s.

Source of the values: US20240272170A1 (QUANTUM SI, published 2024).
